Experimental data from patent US20250171542A1 (ADEPT THERAPEUTICS, published 2025).

T1: canine PD-L1 (Acro Biosystems, Cat #PDL-C52H4) (canine, UniProt E2RKZ5 19-236)
T1 construct: not shown: The vendor's tag, probably a polyhistidine tag
T1 sequence: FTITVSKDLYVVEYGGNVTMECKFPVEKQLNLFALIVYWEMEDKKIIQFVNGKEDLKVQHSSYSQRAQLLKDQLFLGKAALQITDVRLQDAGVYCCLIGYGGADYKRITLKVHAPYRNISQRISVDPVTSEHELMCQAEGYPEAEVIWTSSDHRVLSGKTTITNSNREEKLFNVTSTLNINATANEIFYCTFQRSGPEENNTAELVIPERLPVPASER

T2: CD80 (Sino Biological, Cat #10698-H08H) (UniProt P33681 35-242)
T2 sequence (looked up): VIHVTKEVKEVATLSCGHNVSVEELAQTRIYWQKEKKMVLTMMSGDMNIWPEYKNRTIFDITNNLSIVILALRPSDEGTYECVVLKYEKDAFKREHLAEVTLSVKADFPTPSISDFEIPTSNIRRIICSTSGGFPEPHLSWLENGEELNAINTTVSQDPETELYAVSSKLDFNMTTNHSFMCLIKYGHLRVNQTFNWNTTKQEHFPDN

T3: BH-H2 (Sino Biological, Cat #11559-H08H) (UniProt O75144 19-258)
T3 sequence (looked up): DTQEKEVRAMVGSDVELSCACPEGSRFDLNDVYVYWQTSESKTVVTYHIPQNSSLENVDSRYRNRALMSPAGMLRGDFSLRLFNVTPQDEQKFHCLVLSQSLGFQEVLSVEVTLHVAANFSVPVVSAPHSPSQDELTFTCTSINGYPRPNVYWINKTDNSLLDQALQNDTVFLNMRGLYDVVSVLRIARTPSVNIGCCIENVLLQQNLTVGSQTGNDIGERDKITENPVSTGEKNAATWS


What was measured:
[1] = biological target: T4, rat PD-L1 (Sino Biological, Cat #80450-R08H) (rat, UniProt D4AE25 19-239); assay: ELISA
T4 construct: not shown: The vendor's polyhistidine tag

[2] = biological target: T1, canine PD-L1 (Acro Biosystems, Cat …); assay: ELISA
[3] = biological target: T2, CD80 (Sino Biological, Cat #10698-H08H); assay: ELISA
[4] = biological target: T3, BH-H2 (Sino Biological, Cat #11559-H08H); assay: ELISA
[5] = biological target: T5, human PD-L1 expressed on cell surface (human, UniProt Q9NZQ7 19-290); assay: cell-based or functional assay
[6] = biological target: T6, cynomolgus PD-L1-His (Sino Biological, Cat. 90251-C08H) (cynomolgus, UniProt Q9NZQ7 19-238 (human entry)); assay: ELISA, coated cyno PD-L1-His
T6 construct: Bought protein; also called Cyno PD-L1; Cynomolgus PD-L1 ECD-His; not shown: His tag
Protocol: (§1) Briefly, Maxisorp plates (Nunc) were coated with 100 ul/well of 0.5 μg/ml human PD-L1-His (Sino Biological, Cat #10084-H08H) or cynomolgus PD-L1-His (Sino Biological, Cat. 90251-C08H) protein diluted in 1×PBS (GIBCO) overnight at 4° C. Plates were washed three times with 300 μl/well washing buffer (1×PBST, diluted from 20×PBST (Thermo Scientific) with distilled water)) and then blocked with 300 μl/well of blocking buffer (1×PBST/I % BSA) for 2 hours at RT on shaker (100 rpm). Plates were washed and added with 100 μl/well of testing antibodies, which were serial diluted with assay buffer (PBST/1% BSA). The antibodies were incubated at room temperature for 2 hours on plate shaker at 100 rpm. Plates were washed. One hundred microliter of horseradish peroxidase (HRP) conjugated detection antibody was added into each well and incubated at room temperature for 1 hour on plate shaker at 100 rpm. Plates were washed and added with 100 μl/well TMB substrate for color development at room temperature in dark for up to 10 minutes. After addition of 50 μl/well of stop solution (1N H₂SO₄), plates were read at 450 nm on a plate reader (SpectraMax M5).
(§2) Anti-HEL isotype control (Biolntron) was used as negative control.

[7] = biological target: T7, human PD-L1-His (Sino Biological, Cat #10084-H08H) (human, UniProt Q9NZQ7 19-238); assay: ELISA, coated human PD-L1-His
T7 construct: Bought protein; also called human PD-L1 ECD-His; recombinant human PD-L1-His protein; not shown: His tag
Protocol: as §1, §2

[8] = biological target: T6, cynomolgus PD-L1-His (Sino Biological, …); assay: BLI (Gator), cynomolgus PD-L1
[9] = biological target: T5, human PD-L1 expressed on cell surface; assay: flow cytometry, MDA-MB-231-GFP cells
Protocol: Cells were then resuspended in FACS buffer (1×DPBS/1% FBS) at 10⁶/ml concentration. One hundred microliter (100 μl) of cells were aliquoted into a single well in 96 well plates. The antibodies to be tested were serially diluted at 1:3 fold starting at 15 ug/mL and were then added into each well. The antibodies were mixed with cells and the mixtures were incubated on ice for 1 hour. […] After washing with FACS buffer, stained cells were resuspended at diluted […] (Biolegend, Cat #420404, used at 1:100 dilution) and analyzed on Guava 11HT (Luminex). Data was analyzed using Flowjo software.
as §2

[10] = biological target: T7, human PD-L1-His (Sino Biological, Cat …); assay: BLI (Gator), antibody on HFC probe, human PD-L1-His in solution
Protocol: The affinity of the binding of the exemplary anti-PD-L1 antibodies of the present disclosure was determined. Assay was performed according to the protocol recommended by Gator or Gator Plus (Gator Bio Inc.). Briefly, human PD-L1-His (Sino Biological, Cat #10084-H08H) was serially diluted 4-fold, starting at 4 μg/ml. After three times of regeneration in generation buffer (Gator Bio, Cat #120012) and neutralization of HFC probe (Gator Bio, Cat #160003), 1 μg/ml of antibody to be tested in Q buffer (Gator Bio, Cat #120010) was immobilized onto HFC probe. After a baseline step, probe immobilized with antibody was dipped into antigen solutions. The association and dissociation of antigen from antibody was measured on BLI machine Gator. Affinity was calculated using Gator Bio analysis software.
Table 22 below summarizes the binding affinity to human PD-L1 using Gator.

T6 sequence (Q9NZQ7 other isoform, or with tags, fused parts or gaps C08H C08H limits assumed): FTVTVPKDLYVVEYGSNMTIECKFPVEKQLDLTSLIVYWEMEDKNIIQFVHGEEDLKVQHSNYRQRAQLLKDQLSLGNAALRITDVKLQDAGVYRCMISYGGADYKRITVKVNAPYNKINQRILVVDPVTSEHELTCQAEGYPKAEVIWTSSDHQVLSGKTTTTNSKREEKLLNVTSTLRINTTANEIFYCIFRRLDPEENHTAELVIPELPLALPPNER
T5 sequence (Q9NZQ7 19-290 limits assumed): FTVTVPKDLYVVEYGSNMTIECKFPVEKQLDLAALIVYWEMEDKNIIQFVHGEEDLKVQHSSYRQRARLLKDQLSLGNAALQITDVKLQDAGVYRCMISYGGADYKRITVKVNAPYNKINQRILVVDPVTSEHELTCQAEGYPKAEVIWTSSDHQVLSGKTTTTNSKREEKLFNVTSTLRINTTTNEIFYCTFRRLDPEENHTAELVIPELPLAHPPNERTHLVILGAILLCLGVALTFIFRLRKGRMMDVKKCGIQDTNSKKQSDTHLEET
T4 sequence (D4AE25 entry or part of it R08H R08H limits assumed): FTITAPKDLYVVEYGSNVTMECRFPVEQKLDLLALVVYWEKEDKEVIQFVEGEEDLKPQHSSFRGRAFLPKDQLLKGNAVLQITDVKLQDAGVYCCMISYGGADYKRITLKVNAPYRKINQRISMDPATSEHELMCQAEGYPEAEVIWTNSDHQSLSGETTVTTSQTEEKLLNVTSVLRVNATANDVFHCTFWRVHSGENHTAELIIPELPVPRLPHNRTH
T7 sequence (Q9NZQ7 19-238): as the sequence (Q9NZQ7 other isoform, or with tags, fused parts or gaps C08H C08H limits assumed) above, with T33A, S34A, N62S, Q68R, R82Q, L173F, A185T, I192T, L215H counted along it

| Binder | binding result [1] | binding result [2] | binding result [3] | binding result [4] | Internalization (%), FACS, 0.25 µg/ml, 2 h [5] | Internalization (%), FACS, 0.25 µg/ml, 4 h [5] | Internalization (%), FACS, 0.5 µg/ml, 2 h [5] | Internalization (%), FACS, 0.5 µg/ml, 4 h [5] | Internalization (%), FACS, 1 µg/ml, 2 h [5] | Internalization (%), FACS, 1 µg/ml, 4 h [5] | Internalization (%), FACS, 2 µg/ml, 2 h [5] | Internalization (%), FACS, 2 µg/ml, 4 h [5] | EC50 [6] | EC50 [7] | Kd [8] | koff [8] | kon [8] | EC50 [9] | Kd [10] | koff [10] | further results |
| --- | --- | --- | --- | --- | --- | --- | --- | --- | --- | --- | --- | --- | --- | --- | --- | --- | --- | --- | --- | --- | --- |
| 74F4 (antibody, human IgG1, V domains shown) VH: QEQLEESGGGLVQPEGSLTLTCTASGFSFSGDYYMSWVRQAPGKGLEWIASIYTGSLNTYYATWAKGRFTISLTSSTTVTLQMTSLTAADTATYFCARRNKNADYGHFDLWGPGTLVTVSS VL: YDMTQTPASVEVAVGGTVTIKCQASQSINDRLAWYQQSPGQPPKLLIYGASTLASGVPSRFKGSGSGTDFTLTISDLECADAATYYCQQGWTVSSLDNAFGGGTEVVAK | no binding | no binding | no binding | no binding | 19% | 15.3% | 22.5% | 15.7% | 19.5% | 18.2% | 24.1% | 22% | 0.0125 nM | 0.0157 nM | 0.01 nM | 5e-06 s⁻¹ | 387000 M⁻¹ s⁻¹ | 1.44 nM | 0.36 nM | 0.000238 s⁻¹ | kon [10]: 648000 M⁻¹ s⁻¹ |
| 55H3/76D6 (antibody, human IgG1, V domains shown) VH: QEQLEESGGGLVQPEGSLTLTCTVSGFSFSGDYYMSWVRQAPGKGLEWVASIYTGSLNSYYATWAKGRFTISLTSSTTVTLQMTSLTAADTATYFCARRNKNADYGHFDLWGPGTLVTVSS VL: YDMTQTPASVEVAVGGTVTIKCQASESINDRLAWYQQKPGQPPKLLIYAASTLASGVPSRFRGSGSGTDFTLTISDLECADAATYYCQQGWTVSSLDNAFGGGTEVVAM | no binding | no binding | no binding | no binding | 22.9% | 20.6% | 20.8% | 19.9% | 22.1% | 17.9% | 24.2% | 22.2% | 0.0126 nM | 0.0199 nM | 0.03 nM | 1.1e-05 s⁻¹ | 307000 M⁻¹ s⁻¹ | 2.93 nM | 0.64 nM | 0.000317 s⁻¹ | kon [10]: 498000 M⁻¹ s⁻¹ |

More lines, main results first:

| binding result [1] | binding result [2] | binding result [3] | binding result [4] | Internalization (%), FACS, 0.25 µg/ml, 2 h [5] | Internalization (%), FACS, 0.25 µg/ml, 4 h [5] | Internalization (%), FACS, 0.5 µg/ml, 2 h [5] | Internalization (%), FACS, 0.5 µg/ml, 4 h [5] | Internalization (%), FACS, 1 µg/ml, 2 h [5] | Internalization (%), FACS, 1 µg/ml, 4 h [5] | Internalization (%), FACS, 2 µg/ml, 2 h [5] | Internalization (%), FACS, 2 µg/ml, 4 h [5] | EC50 [6] | EC50 [7] | Kd [8] | koff [8] | kon [8] | EC50 [9] | Kd [10] | koff [10] | Binder | further results |
| --- | --- | --- | --- | --- | --- | --- | --- | --- | --- | --- | --- | --- | --- | --- | --- | --- | --- | --- | --- | --- | --- |
| no binding | no binding | no binding | no binding | 22.9% | 22.1% | 20.7% | 19.8% | 23.8% | 20.6% | 24.7% | 26.5% | 0.0078 nM | 0.0184 nM | ≤ 0.03 nM | ≤ 1e-05 s⁻¹ | 313000 M⁻¹ s⁻¹ | 1.29 nM | 0.75 nM | 0.00056 s⁻¹ | 56E5 (antibody, human IgG1, V domains shown) VH: QEQLEESGGGLVQPEGSLTLTCTASGFSFSGDYYMSWVRQAPGKGLEWIASIYTGSLNTYYATWAKGRFTISLTSSTTVTLQMTSLTAADTATYFCARRHKNADYGHFDLWGPGTLVTVSS VL: YDMTQTPGSVEVAVGGTVTIKCQASQSINDRLAWYQQTPGQPPKLLIYGASTLASGVPSRFKGSGSGTEFTLTISDLECADAATYYCQQGWTVSSLDNAFGGGTEVVAK | kon [10]: 748000 M⁻¹ s⁻¹ |
| no binding | no binding | no binding | no binding | 18.5% | 18.3% | 15.5% | 14.7% | 13.7% | 13.7% | 12.7% | 9.7% | 0.0113 nM | 0.0146 nM | 0.03 nM | 1.3e-05 s⁻¹ | 390000 M⁻¹ s⁻¹ | 0.14 nM | 0.06 nM | 3.6e-05 s⁻¹ | 27A2 (antibody, human IgG1, V domains shown) VH: QEQLEESGGGLVQPEGSLTLTCTASGFSFSSNHYMSWVRQAPGKGLEWIGSIGVGSGITDYASWAKGRFTISKASSTTLTLQMTTLTAADTAIYFCARWTSGGGGFGLWGPGTLVTVSS VL: QVLTQTSSPVSAAVGGTVTINCQSSQTIYSDYLFWYQQTPGQPPKLLIYQTSTLASGVPSRFKGSGSGTEFTLTISEIQCDDAATYYCQGYYSGYIWTFGGGTEVVVR | kon [10]: 643000 M⁻¹ s⁻¹ |
| no binding | no binding | no binding | no binding | 16.3% | 16% | 16.1% | 19% | 15.3% | 9.1% | 6.5% | 4.8% | 0.0076 nM | 0.0172 nM | 0.25 nM | 8.7e-05 s⁻¹ | 349000 M⁻¹ s⁻¹ | 0.19 nM | 0.58 nM | 0.000399 s⁻¹ | 56H3 (antibody, human IgG1, V domains shown) VH: QEQLVESGGGLVQPEGSLTLTCTASEFSFSNNYYMSWVRQAPGKGLEWLGSIGIGSGITDYASWAKGRFTISKASSTTVTLQMTTLTAADTAIYFCARWTSGGGGFGLWGPGTLVTVSS VL: QVLTQTSSPVSAAVGGTVTINCQSSQTIYSDYLFWYQQKPGQPPKLLIYQTSTLASGVPSRFSGSGSGTQFTLTISGVQCDDAATYYCQGYYSGYIWTFGGGTEVVVN | kon [10]: 686000 M⁻¹ s⁻¹ |
